Results from patent publication US20210032352A1 (ANTERA THERAPEUTICS, published 2021).
Each block holds one binder with its values, some of them ahead of it.

Key:
Test in all cases: kinetic table (called BLI in paragraph 35); quantity name and unit not printed in the table: KD in M follows from FIG. 12A
FZD7 CRD, Fc-tagged = FZD7 CRD, Fc-tagged (human, UniProt O75084 33-185)
FZD2 CRD, Fc-tagged = molecular target: T1, FZD2 CRD, Fc-tagged (human, UniProt Q14332 24-190)
T1 construct: domain: CRD; Bought; not shown: Fc tag of the purchased fusion

FZD1 CRD, Fc-tagged = molecular target: T2, FZD1 CRD, Fc-tagged (human, UniProt Q9UP38 70-250)
T2 construct: domain: CRD; Bought; not shown: Fc tag of the purchased fusion
T2 sequence (Q9UP38 70-250): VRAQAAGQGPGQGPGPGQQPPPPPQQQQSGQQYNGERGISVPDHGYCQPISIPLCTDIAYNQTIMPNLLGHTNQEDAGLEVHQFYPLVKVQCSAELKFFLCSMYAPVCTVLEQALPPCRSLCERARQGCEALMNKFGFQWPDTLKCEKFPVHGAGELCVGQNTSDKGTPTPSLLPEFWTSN

[1] = molecular target: T3, human LRP6 ECD, Fc-tagged (human, UniProt O75581 20-1370)
T3 construct: extracellular domain; Bought; also called LRP co-receptor; not shown: Fc tag of the purchased fusion
T3 sequence (looked up): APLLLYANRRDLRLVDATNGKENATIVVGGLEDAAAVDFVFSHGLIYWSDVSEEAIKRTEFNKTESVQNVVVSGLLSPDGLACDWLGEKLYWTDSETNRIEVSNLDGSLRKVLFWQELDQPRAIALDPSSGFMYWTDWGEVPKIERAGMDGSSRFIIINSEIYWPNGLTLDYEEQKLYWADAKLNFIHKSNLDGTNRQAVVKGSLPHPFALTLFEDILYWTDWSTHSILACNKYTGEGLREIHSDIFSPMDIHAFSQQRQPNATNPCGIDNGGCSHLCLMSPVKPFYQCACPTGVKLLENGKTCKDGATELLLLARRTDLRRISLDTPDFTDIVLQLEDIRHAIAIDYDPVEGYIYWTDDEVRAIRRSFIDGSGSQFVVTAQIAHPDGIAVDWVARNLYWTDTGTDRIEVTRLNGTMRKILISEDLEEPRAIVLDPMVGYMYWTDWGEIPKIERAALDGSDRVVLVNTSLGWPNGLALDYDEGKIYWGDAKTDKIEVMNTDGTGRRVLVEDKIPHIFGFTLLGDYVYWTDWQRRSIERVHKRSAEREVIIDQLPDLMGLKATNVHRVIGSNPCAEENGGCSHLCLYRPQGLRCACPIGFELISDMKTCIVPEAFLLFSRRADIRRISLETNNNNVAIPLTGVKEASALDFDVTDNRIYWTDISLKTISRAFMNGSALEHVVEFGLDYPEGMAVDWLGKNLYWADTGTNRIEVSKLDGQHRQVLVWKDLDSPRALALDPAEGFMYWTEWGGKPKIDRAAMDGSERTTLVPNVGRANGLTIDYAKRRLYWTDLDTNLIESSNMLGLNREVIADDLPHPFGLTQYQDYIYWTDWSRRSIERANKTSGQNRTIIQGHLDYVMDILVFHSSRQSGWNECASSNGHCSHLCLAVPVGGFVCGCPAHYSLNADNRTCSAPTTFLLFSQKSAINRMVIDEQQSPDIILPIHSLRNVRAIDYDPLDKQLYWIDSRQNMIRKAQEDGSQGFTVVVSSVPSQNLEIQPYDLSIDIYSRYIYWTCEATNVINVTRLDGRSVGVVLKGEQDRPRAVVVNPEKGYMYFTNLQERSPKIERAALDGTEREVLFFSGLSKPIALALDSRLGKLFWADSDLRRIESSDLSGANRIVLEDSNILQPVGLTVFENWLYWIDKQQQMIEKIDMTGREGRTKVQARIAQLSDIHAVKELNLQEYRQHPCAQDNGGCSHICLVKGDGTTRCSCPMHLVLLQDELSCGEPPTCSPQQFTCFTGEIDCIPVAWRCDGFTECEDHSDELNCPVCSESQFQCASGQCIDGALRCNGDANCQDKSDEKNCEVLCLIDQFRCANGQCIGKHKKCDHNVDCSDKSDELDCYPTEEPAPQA

Kd (FZD7 CRD, Fc-tagged): 0.1 nM
Kd (FZD2 CRD, Fc-tagged): 0.15 nM
Kd (FZD1 CRD, Fc-tagged): 0.13 nM
Kd [1]: 9.7 nM
B1: F^P*+P*-L6^1*+3* (bispecific antibody)
chain 1: DIQMTQSPSSLSASVGDRVTITCRASQSVSSAVAWYQQKPGKAPKLLIYSASSLYSGVPSRFSGSRSGTDFTLTISSLQPEDFATYYCQQGVYLFTFGQGTKVEIKGTTAASGSSGGSSSGAEVQLVESGGGLVQPGGSLRLSCAASGFNIGSSSIHWVRQAPGKGLEWVASIYSAFASTSYADSVKGRFTISADTSKNTAYLQMNSLRAEDTAVYYCARYHFPFGFALDYWGQGTLVTVSSLEDKTHTKVEPKTSDKTHTCPPCPAPELLGGPSVFLFPPKPKDTLMISRTPEVTCVVVDVSHEDPEVKFNWYVDGVEVHNAKTKPREEQYNSTYRVVSVLTVLHQDWLNGKEYKCKVSNKALPAPIEKTISKAKGQPREPMVFDLPPSREEMTKNQVSLWCMVKGFYPSDIAVEWESNGQPENNYKTTPPVLDSDGSFFLYSKLTVDKSRWQQGNVFSCSVMHEALHNHYTQKSLSLSPGKSGSETPGTSESATPESGGGDIQMTQSPSSLSASVGDRVTITCRASQSVSSAVAWYQQKPGKAPKLLIYSASSLYSGVPSRFSGSRSGTDFTLTISSLQPEDFATYYCQQYSWGPFTFGQGTKVEIKGTTAASGSSGGSSSGAEVQLVESGGGLVQPGGSLRLSCAASGFNISYSSIHWVRQAPGKGLEWVAYISSYYGYTYYADSVKGRFTISADTSKNTAYLQMNSLRAEDTAVYYCARAHYFPWAGAMDYWGQGTLVTVSS
chain 2: DIQMTQSPSSLSASVGDRVTITCRASQSVSSAVAWYQQKPGKAPKLLIYSASSLYSGVPSRFSGSRSGTDFTLTISSLQPEDFATYYCQQGVYLFTFGQGTKVEIKGTTAASGSSGGSSSGAEVQLVESGGGLVQPGGSLRLSCAASGFNIGSSSIHWVRQAPGKGLEWVASIYSAFASTSYADSVKGRFTISADTSKNTAYLQMNSLRAEDTAVYYCARYHFPFGFALDYWGQGTLVTVSSLEDKTHTKVEPKSSDKTHNCPPCPAPELLGGPSVFLFPPKPKDTLMISRTPEVTCVVVDVSHEDPEVKFNWYVDGVEVHNAKTKPREEQYNSTYRVVSVLTVLHQDWLNGKEYKCKVSNKALPAPIEKTISKAKGQPREPQVYTLPPIRELMTSNQVSLSCAVKGFYPSDIAVEWESNGQPENNYKTTPPVLDSDGSFFLVSKLTVDKSRWQQGNVFSCSVMHEALHNHYTQKSLSLSPGKSGSETPGTSESATPESGGGDIQMTQSPSSLSASVGDRVTITCRASQSVSSAVAWYQQKPGKAPKLLIYSASSLYSGVPSRFSGSRSGTDFTLTISSLQPEDFATYYCQQYYWPITFGQGTKVEIKGTTAASGSSGGSSSGAEVQLVESGGGLVQPGGSLRLSCAASGFNISSYYIHWVRQAPGKGLEWVASIYSSYGYTSYADSVKGRFTISADTSKNTAYLQMNSLRAEDTAVYYCARTVRGSKKPYFSGWAMDYWGQGTLVTVSS

Kd (FZD7 CRD, Fc-tagged): 0.027 nM
Kd (FZD2 CRD, Fc-tagged): 0.084 nM
Kd (FZD1 CRD, Fc-tagged): 0.09 nM
Kd [1]: 8.2 nM
B2: F^P*+P*-L6^1+3 (bispecific antibody)
knob: DIQMTQSPSSLSASVGDRVTITCRASQSVSSAVAWYQQKPGKAPKLLIYSASSLYSGVPSRFSGSRSGTDFTLTISSLQPEDFATYYCQQGVYLFTFGQGTKVEIKGTTAASGSSGGSSSGAEVQLVESGGGLVQPGGSLRLSCAASGFNIGSSSIHWVRQAPGKGLEWVASIYSAFASTSYADSVKGRFTISADTSKNTAYLQMNSLRAEDTAVYYCARYHFPFGFALDYWGQGTLVTVSSLEDKTHTKVEPKTSDKTHTCPPCPAPELLGGPSVFLFPPKPKDTLMISRTPEVTCVVVDVSHEDPEVKFNWYVDGVEVHNAKTKPREEQYNSTYRVVSVLTVLHQDWLNGKEYKCKVSNKALPAPIEKTISKAKGQPREPMVFDLPPSREEMTKNQVSLWCMVKGFYPSDIAVEWESNGQPENNYKTTPPVLDSDGSFFLYSKLTVDKSRWQQGNVFSCSVMHEALHNHYTQKSLSLSPGKSGSETPGTSESATPESGGGEVQLVESGGGLVQPGGSLRLSCAASGFNISYSSIHWVRQAPGKGLEWVAYISSYYGYTYYADSVKGRFTISADTSKNTAYLQMNSLRAEDTAVYYCARAHYFPWAGAMDYWGQGTLVTVSSGGGGSDIQMTQSPSSLSASVGDRVTITCRASQSVSSAVAWYQQKPGKAPKLLIYSASSLYSGVPSRFSGSRSGTDFTLTISSLQPEDFATYYCQQYYWPITFGQGTKVEIK
hole: DIQMTQSPSSLSASVGDRVTITCRASQSVSSAVAWYQQKPGKAPKLLIYSASSLYSGVPSRFSGSRSGTDFTLTISSLQPEDFATYYCQQGVYLFTFGQGTKVEIKGTTAASGSSGGSSSGAEVQLVESGGGLVQPGGSLRLSCAASGFNIGSSSIHWVRQAPGKGLEWVASIYSAFASTSYADSVKGRFTISADTSKNTAYLQMNSLRAEDTAVYYCARYHFPFGFALDYWGQGTLVTVSSLEDKTHTKVEPKSSDKTHNCPPCPAPELLGGPSVFLFPPKPKDTLMISRTPEVTCVVVDVSHEDPEVKFNWYVDGVEVHNAKTKPREEQYNSTYRVVSVLTVLHQDWLNGKEYKCKVSNKALPAPIEKTISKAKGQPREPQVYTLPPIRELMTSNQVSLSCAVKGFYPSDIAVEWESNGQPENNYKTTPPVLDSDGSFFLVSKLTVDKSRWQQGNVFSCSVMHEALHNHYTQKSLSLSPGKSGSETPGTSESATPESGGGEVQLVESGGGLVQPGGSLRLSCAASGFNISSYYIHWVRQAPGKGLEWVASIYSSYGYTSYADSVKGRFTISADTSKNTAYLQMNSLRAEDTAVYYCARTVRGSKKPYFSGWAMDYWGQGTLVTVSSGGGGSDIQMTQSPSSLSASVGDRVTITCRASQSVSSAVAWYQQKPGKAPKLLIYSASSLYSGVPSRFSGSRSGTDFTLTISSLQPEDFATYYCQQYSWGPFTFGQGTKVEIK
